A short description of this data set: soluble on expression in E. coli; label from the status in PepcDB or PDB records.
“MPNLLDDSFDPTFQSTSKKLVLPSIRKVQPEYDNLPEEQGVNDFSSDELMKLLSFMEGEVQAREDVIDHLKRERTKILLSEAKYGKLNMNDPFAALRRDSAITGEQIDEEKIVQMYESQVDQLDKMMAVQKQSQRNAAVLLVALEKKQYKLVKKLEADREAKIRYAKQGDDLVAHLEKERNQLQQQIEFHIEEKRKAEIAKDKMEMTLGNEKKRHESIVLYLIQERKQMLLKMHELRVKAEQIMLQNQNDPTKPGPSSALSERELIEELKKEVTFLRAERESLTKTQKMVKTENLSLRETVRGQEADLQMLRRNLTLTGAKMSIDKPGNVLPQLPPDTGSLIMANRGAKPAVNRQQPAPPPVARLPNSATFPTEKSRLPRAPPPAVTTPVPRMSIGSLPASSSNVPRTMSSPVKKTPVMGVSSTAVRRPQSAATTTMPTTSVITNTSAVMPLSPDLEQLEAAIQSMNVVTASPPAYSTAMAKRSSSLPREANNNPPGAPIRRSTMNGGMHTSTTGVVSTRIAGPSSNVASERKLSGTVKRNGILAKAFGSSK”: the “soluble on expression in E. coli” value is recorded as “not soluble”.

Take “MPNLSNRLTLLREKQGWSKAETARRLGLKAPSTYGNWEYGIREPDLDMVTQIATLYDVSVDYLLGQQSIPTYAPSELQGEKDIAKRMIKISEDLRYEDDLNLNGKPLNDSAAHFLADSIDFLYEQAKKLND”: the “soluble on expression in E. coli” value was “not soluble”.

For “MPNSSILLIFLLTIVILIAPEENHKTYCEVLTSNNSNCTAYCKEKPECSWGRCEGYFKTNCVCYSDKYQFCE”, the “soluble on expression in E. coli” value is recorded as “not soluble”.

Turning to “MPNVKDITRESWILSTFPEWGTWLNEEIEEEVVAEGNFAMWWLGNCGVWIKTPGGANVVMDLWSNRGKSTKKVKDMVRGHQMANMAGVRKLQPNLRAQPMVIDPFAINELDYYLVSHFHSDHIDINTAAAIINNPNLDHVKFVGPYECGEIWKKWGVPEERIIVIKPGESFEFKDIKVTAVESFDRTCLVTLPVDGAEEHDGELAGLAVTDEEMARKAVNYIFETPGGTIYHGADSHFSNYFAKHGKDYKIDVAINNYGDNPVGIQDKMTSIDLLRMAENLRAKVIIPVHYDIWSNFMASTDEILQLWKMRKERLQYDFHPFIWEVGGKYTYPQDKDRIEYHHPRGFDDCFEQESNIQFKALLMAGDPLEHHHHHH”, the “soluble on expression in E. coli” value is reported as “soluble”.

Take “MPPITQQATVTAWLPQVDASQITGTISSLESFTNRFYTTTSGAQASDWIASEWQALSASLPNASVKQVSHSGYNQKSVVMTITGSEAPDEWIVIGGHLDSTIGSHTNEQSVAPGADDDASGIAAVTEVIRVLSENNFQPKRSIAFMAYAAEEVGLRGSQDLANQYKSEGKNVVSALQLDMTNYKGSAQDVVFITDYTDSNFTQYLTQLMDEYLPSLTYGFDTCGYACSDHASWHNAGYPAAMPFESKFNDYNPRIHTTQDTLANSDPTGSHAKKFTQLGLAYAIEMGSATGDTPTPGNQ”: the “soluble on expression in E. coli” value was “soluble”.

As for “MPPKVTSELLRQLRQAMRNSEYVTEPIQAYIIPSGDAHQSEYIAPCDCRRAFVSGFDGSAGTAIITEEHAAMWTDGRYFLQAAKQMDSNWTLMKMGLKDTPTQEDWLVSVLPEGSRVGVDPLIIPTDYWKKMAKVLRSAGHHLIPVKENLVDKIWTDRPERPCKPLLTLGLDYTGISWKDKVADLRLKMAERNVMWFVVTALDEIAWLFNLRGSDVEHNPVFFSYAIIGLETIMLFIDGDRIDAPSVKEHLLLDLGLEAEYRIQVHPYKSILSELKALCADLSPREKVWVSDKASYAVSETIPKDHRCCMPYTPICIAKAVKNSAESEGMRRAHIKDAVALCELFNWLEKEVPKGGVTEISAADKAEEFRRQQADFVDLSFPTISSTGPTGAIIHYAPVPETNRTLSLDEVYLIDSGAQYKDGTTDVTRTMHFETPTAYEKECFTYVLKGHIAVSAAVFPTGTKGHLLDSFARSALWDSGLDYLHGTGHGVGSFLNVHEGPCGISYKTFSDEPLEAGMIVTDEPGYYEDGAFGIRIENVVLVVPVKTKYNFNNRGSLTLEPLTLVPIQTKMIDVDSLTDKECDWLNNYHLTCRDVIGKELQKQGRQEALEWLIRETQPISKQH”, the “soluble on expression in E. coli” value is recorded as “soluble”.

As to “MPPPIAFNASARKSQSVNQSDVMMMSDPSHVDIIKSNSHTTRIAVNLVSEPESRLKLHGEDARMSWTVLLLVFRATTIATRNNVPELDRELAR”, the “soluble on expression in E. coli” value is on record as “not soluble”.

On to “MPPPTASTPDDSADPGPDFADVPPTDLVKVGFIFRPHGLDGELKIDPSATDDPARFEVLPTVFVGPHPRRVVRHDIASVRYQKTKRGITVILGLDGIVDRDDAEAVAKMDVFATEAALGLEDDELFADDLVGWTVVTEEGAVQGTVADFMEMPAQDLFVVRTPEDTEAMIPAIDDFIIEIDEEAERIVVRPIDGLMDALEHHHHHH”, for which the “soluble on expression in E. coli” value was “not soluble”.

As for “MPQDPRHPEHQYLDLVKHILENGARRMDRTGTGTLSVFGATMRFSLEDNTFPLLTTRRVFYRGVVEELLFFLRGETDSKVLEKKGVRIWEKNGAKQFLQSVGIDREEGDLGPIYGFQWRHFGARYETSASSYEGKGVDQIASAIAAIRANPASRRIVVSAWNPTDLGSMALPPCHVLFQFNVTDGKLSCAMYQRSGDMGLGVPFNIASYSLLTILVAHLTGLQPGEFVHFLGDAHVYLDHVDSLRQQIQRPPRAFPKLFVSPKGPRTEPEHFQYEDFELVGYDPHPAIKMNMSA”, the “soluble on expression in E. coli” value is “soluble”.

Consider “MPREESESPLLVYEDPRHTPYTPFKYARKDEEERSSGGGKSPPKKAPKAQDRMSLRDKFEAAPTTKKRKTAQDPADELLQAIKPLFNQVKKEMADQLADQLGRFNEQLDMAVNSFSDEIVKLKADHALAEKNVDTYAQKVSGMFQRADMMSANVQEQRTQQAEDNRMASKARDRIIYDIAQVATNMKTMSETIAKIDAREEQAAQKQAERHTPQGGQGSLEPALKCPLCKRHHAPENCTIIRNGLDRREEAEKIKMCIQCLEVGVTNDDWVHEGCPKEKEQCTRCTKYMKPGEIAQTHHNATFCLMLTSKQYKLERKGSPSDRDYSPKGRRGPIRSRHNRYGG”, for which the “soluble on expression in E. coli” value is on record as “not soluble”.

Consider “MPRGLILATPQLPPDGTPFSARYDDVYHSTEGGLAQAHHVFLGGNGLPGGWQGKRSFTIVETGFGQGLNFLATWAAWRDDPQRCGRLDFVSVEKHPFDRAGLALVHAQEGALASLAEALRQAWPVPVPGVHRLVFDAGRVTLTLMLGDAETLLPQLSCAADAFYLDGFSPAKNPDLWQPGVFKQLARIARGGATLATYTAAGAVRHGLREAGFEVRKAPGFGRKRDMTVAAFPTHWRTRRGPAEAPVWPERHAIVLGAGLAGCSVAERLAARGWRITLIDEHEAPAGGASAHRAAAMHPHVSIDDSVLSRLSRAGNLLARRHWEALDRAGFATGFHPTGVLQLAEHADDAAEQQRIVQALGFPADFIAWLDAARAADRVGAGVPQGGWWFAQAGWVAPPDICRAALAAAGEAVELRWRTRIESLLRHDAGWRACDAQGNVIAHAPVVVLANSLDAVRLAPLASAALKPVRGQLTDVPVAALEDGVPWPRAVVCGDGYLLPRERGAPTVRVGSSFQPGETDPDARTADHAANLRRLAGLQPAHAAALARVDPARLLGYVGVRCVSANRLPLIGAVADEAAIMAPGFRLRGPHAALPRVPGLYAALAYGSRGLTWSVLGAELLAAQIDGGPLPLESELAAALDPGRFLMRALRHGKHAA”, for which the “soluble on expression in E. coli” value was “soluble”.

As for “MPRKPKRPCSFPGCPELTDGRYCDMHQRQMDAYYNKYERDPQTRKRYDRRWKRIRDRYISEHPLCEECQKYGRLTPAEEVHHIIPLSKGGTNADSNLMSLCKQCHSSITAREGERWARR”, the “soluble on expression in E. coli” value is given as “not soluble”.

Take “MPRPALRSRSLRRVYVKLPSGKTVIHYERKRNDIAICAICKKPLHGVKTNFLHKYSKSEKRPERPFGGYLCSSCLTQLIKATVRQQLQ”: the “soluble on expression in E. coli” value is on record as “soluble”.

Regarding “MPRTRVNLQKSEANDRSFTISSLEFCLSQLRKADPNLVKKAIASGDGLTESKNDVSTRLSEAHRYSVQQCLDNSEQLAQLHNQLVHCDNVFERLQATLYSFQDNLGSIGQDMKNLQLQSHHIHQELENRQKVRVELSQFVDDIAVSQTMMKTINDTDANDRGFLEALHELHHKITLILQRGNGDAVAVNDTMPILEGLKLKAVVKVREWLLQKMFQFRKPLSNYQVFQHQLLKCRFFYEFLLHHDLISAKELQDEYIDTISKMFFTYFKAYATRLFKLAMKDVATKEDALGSIDFAKPAGLGAIFSSKQHVVRNKATVFSIGQRHQILSDDFLGALIVPHAVTQNHQSVYLTIELAMARAMSVVLKSCEEQIALSWDAISLHLCICLCDKFTEVLAEREVPEVSDYWNTVTSFLWTRLNLVMSQHYESVKSVDLKKLMHSGSLDARPHFIVRRYAELTSAHLMIAKASGKEMGAKMEAVLENSEDSIEQLLTRMSAMQQTQKNKHVFLINNYDLILSIIDNEESKHTKIYAIVHELEQKSIDDFVEEMLEPHIGYMIKFVNECESLIVQGHTQLLVRYNDKVGTVVANFNAKWRPAVDSINSECIQLFTNFSLGTTILQTIFTKYVQYINRFTKILSHDVFAKNPVCSQLVNVHQVMLEIKRFKPAY”, the “soluble on expression in E. coli” value is “not soluble”.

“MPSENPIGKTMKSIDEQSLHNARRLFESGDIDRIEVGTTAGLQQIHRYLFGGLYDFAGQIREDNISKGGFRFANAMYLKEALVKIEQMPERTFEEIIAKYVEMNIAHPFLEGNGRSTRIWLDLVLKKNLKKVVNWQNVSKTLYLQAMERSPVNDLELRFLLKDNLTDDVDNREIIFKGIEQSYYYEGYEKG”: the “soluble on expression in E. coli” value is “soluble”.

“MPSGYGVLLATHDDDTVDVFTSGRKMRLTCSPNIDAASLKKGQTVRLNEALTVVEAGTFEAVGEISTLREILADGHRALVVGHADEERVVWLADPLIAEDLPDGLPEALNDDTRPRKLRPGDSLLVDTKAGYAFERIPKAEVEDLVLEELVPR”: the “soluble on expression in E. coli” value is reported as “soluble”.

Consider “MPSLFKTMAFQLKTERLELSMWEESDSVWLSKLIGERGVDIPAVDSVRNRLIEMRKKADENGISLLTIRRRDEGDFIGYCGLIIGRSTLEEPEIAYELFRSAHGKGYATEAASVVLDAAIATGRQRLWSTVGAWNIASLRVLEKIGFKRHHSTWDDERGEIVWNVRDL”, for which the “soluble on expression in E. coli” value is reported as “not soluble”.

For the sequence “MPSLQDLYAAFRRIAPYTHRTPLLTSRLLDGLLGKRLLLKAEHLQKTGSFKARGALSKALALENPKGLLAVSSGNHAQGVAYAAQVLGVKALVVMPEDASPYKKACARAYGAEVVDRGVTAKNREEVARALQEETGYALIHPFDDPLVIAGQGTAGLELLAQAGRMGVFPGAVLAPVGGGGLLAGLATAVKALSPTTLVLGVEPEAADDAKRSLEAGRILRLEAPPRTRADGVRTLSLGERTFPILRERVDGILTVSEEALLEAERLLFTRTKQVVEPTGALPLAAVLEHGARLPQTLALLLSGGNRDFSP”, the “soluble on expression in E. coli” value is listed as “soluble”.

As for “MPSNPQQSSRATPDRPSGSDESVIVERIYKAVMEQRLAPKTKLSEARLCETFGVGRMRVRRALLLLSSQGIIELQSNRGAYVACPDTAEANEVFAARMLIEPPLVRQLAQSSGNIDLTILTEHIALEDAARERKERTEIIRLSGEFHTKLAQATGNKFIFRMMRELVTRTSLIVGLFGSSENASCPDDEHNNILKAIQSQDPEMAETLLISHLNHIQNGLDMDMRQVPQDDLAAILGSD”, the “soluble on expression in E. coli” value is on record as “not soluble”.

“MPSPTVTSPQVAVNDIGSSEDFLAAIDKTIKYFNDGDIVEGTIVKVDRDEVLLDIGYKTEGVIPARELSIKHDVDPNEVVSVGDEVEALVLTKEDKEGRLILSKKRAQYERAWGTIEALKEKDEAVKGTVIEVVKGGLILDIGLRGFLPASLVEMRRVRDLQPYIGKEIEAKIIELDKNRNNVVLSRRAWLEQTQSEVRSEFLNNLQKGTIRKGVVSSIVNFGAFVDLGGVDGLVHVSELSWKHIDHPSEVVQVGDEVTVEVLDVDMDRERVSLSLKATQEDPWRHFARTHAIGQIVPGKVTKLVPFGAFVRVEEGIEGLVHISELAERHVEVPDQVVAVGDDAMVKVIDIDLERRRISLSLKQANEDYTEEFDPAKYGMADSYDEQGNYIFPEGFDAETNEWLEGFEKQRAEWEARYAEAERRHKMHTAQMEKFAAAETAGRGADDQSSASSAPSEKTAGGSLASDAQLAALREKLAGSALEHHHHHH”: the “soluble on expression in E. coli” value is given as “not soluble”.

Values taken from the DeepSol protein solubility set.
